Source: US20250195685A1 (CAPSTAN THERAPEUTICS, published 2025)

B1: CBD1033 whole antibody, human IgG1 with Fc-silencing mutations L234A, L235A and P329A (CBD1033-hIgG1-LALAPA) (antibody, V domains shown)
VH: QVQLVQSGAEVKKPGASVKVSCKASRYTFTDYNLHWVRQAPGQGLEWMGFIYPYNGGTGYAQKFQGRVTMTVDTSTSTAYMELSSLRSEDTAVYYCARDHRYNEGVSFDYWGQGTTVTVSS
VL: DIQLTQSPSSLSASVGDRATITCRASESVDGFGNSFMNWYQQKPGKAPKLLIYLASNLESGVPSRFSGSGSGTDFTLTISSVQPEDFATYYCQQNNEDPYTFGQGTKLEIKR
notes: On tLNPs the antibody was SATA-modified or AJICAP-thiolated (CBD1033.29) and conjugated to the LNP; also called CBD1033.3; CBD1033 IgG1
B2: CBD1017ch whole antibody (chimeric CT8 antibody) (antibody, V domains shown)
VH: EVQLQQSGPELVKPGASVKISCKASRYTFTDYNLHWVKLSHEKSLEWIGFIYPYNGGTGYNQKFKNKAKLTVDYSSSTAYMELRSLTSVDAAVYYCARDHRYNEGVSFDYWGQGTTLTVSS
VL: NIVLTQSPASLAVSLGQRATISCRASESVDGFGNSFMNWYQQKPGQSPKLLIYLASNLESGVPARFSGSGSRTDFTLTIDPVEADDAATYYCQQNNEDPYTFGGGTKLEIK
notes: Chimeric antibody comprising the variable regions of the donor antibody CT8; detected with anti-human Fc

Legend:
[1] = target: T1, human CD8 on cells (CD8-overexpressing HEK293T cells, SupT1, HPB-ALL, human T cells, transfected HEK293 of … (human, UniProt P01732 22-235)); test: flow cytometry on HPB-ALL cells; HPB-ALL cells
T1 construct: whole, on cells; also called cell surface CD8
Protocol: (§1) To obtain the results shown in FIG. 6, SupT1 (ATCC #CRL-1942) and HPB-ALL (DSMZ; ACC-483) were cultured in RPMI medium supplemented with 10% Fetal Bovine Serum (#97068-085; Avantor). To determine EC₅₀ values of cell binding from the anti-CD8α antibody, 2×10⁵ total cells were transferred to a V bottom 96-well culture plate (Corning). Cells were washed twice with Cell Staining buffer (#420201, Biolegend). The anti-CD8α antibody was diluted in four-fold antibody titration series from 60 μg/mL to […] into Cell Staining buffer. Cells were stained with each diluted antibody solution for 30 minutes on ice. Cells were then washed three times with Cell Staining buffer and primary antibody binding was detected by staining with anti-human Fc BV421 conjugate antibody (#410704, Biolegend) at 1:200 dilution for 30 minutes on ice. eFluor 780 Fixable Viability dye (eBioscience) at a 1:4000 dilution were also included in the detection antibody solutions. […] Flow cytometry data was analyzed by Flowjo 10 (Becton, Dickinson & Company) to measure the geometric median fluorescence intensity (gMFI) of the on-cell binding from each antibody. The gMFI values were normalized with the gMFI measured in the sample stained with only the secondary detection antibody and plotted against the concentration of the added antibodies. […]

[2] = target: T1, human CD8 on cells (CD8-overexpressing …); test: flow cytometry on SupT1 cells; SupT1 cells
Protocol: as §1

[3] = target: T2, human CD8αα homodimer, recombinant protein (Acro Biosystems) (human, UniProt P01732 22-182); test: BLI steady state analysis, whole antibody, sample stressed at pH 8.5, 40 °C, 3 days
T2 construct: also called CD8αα antigen; biotinylated CD8α recombinant protein (CDA-H82E3)
Protocol: (§2) To assess affinity of whole antibodies, steady state analysis was used as the bivalent nature of both whole antibody and CD8α complicates kinetic analysis. 50 nM CD8α-His (that is, CD8α with a C-terminal oligohistidine tag; Acro) was immobilized on Ni-NTA sensor probes. Binding was analyzed with a three-fold antibody dilutions series: 60 nM, 20 nM, 6.67 nM, 2.22 nM, 0.74 nM, and 0.25 nM. The antigen-loaded sensors were incubated in the diluted solutions to capture the whole IgG antibody for 300 s to record the association phase. Sensors were incubated in the kinetic buffer for 900 s to record the dissociation phase. The spin speed was 1000 rpm for all steps except the antigen loading step which was 400 rpm to control density of the antigen. The temperature of the performed assays was at 30° C. during the association and dissociation phases. The sensor data were baseline subtracted and further analyzed in GatorOne software (version 2.10) to determine the equilibrium dissociation constants (KD) of the antibodies by fitting the signals of the steady states to the 1:1 binding model.

[4] = target: human CD8αβ heterodimer, recombinant protein (human, UniProt P01732 22-182; P10966 22-170, limits assumed); test: SPR (Biacore 8K), antibody captured by anti-human Fc, CD8 as analyte, 1:1 fit, 25 °C
Protocol: (§3) Except for cynomolgus CD8αβ heterodimer, binding was analyzed with a two-fold dilution series of recombinant CD8αα homodimer or CD8αβ heterodimer protein from 200 nM to 6.25 nM. For cynomolgus CD8αβ heterodimer, binding was analyzed with a two-dilution series from 400 nM to 12.5 nM.. The global fitting was performed with a 1:1 fitting model using GatorOne software as described below.
(§4) Surface plasmon resonance (SPR) assays were performed using a Biacore 8K SPR instrument (Cytiva) in a running buffer containing 1×HBS-N(Cytiva) and 0.05% Tween-20 at 25° C. The CBD1033 antibody was captured by anti-human IgG (Fc) antibody (Cytiva) immobilized on a CM5 sensor chip (Cytiva) at a density within 40-50 and 80-100 response units (RU) for kinetic measurements with CD8αα and CD8αp, respectively. To measure the binding kinetics, serial two-fold dilutions of recombinant CD8 protein were prepared in the running buffer were injected into the flow cells at […], with the concentration ranging from 200 to 6.25 nM (successive 1:2 dilutions). The association data was collected for 180 s followed by a 1200 s dissociation step. At the end of each binding cycle, the sensor surface was regenerated with a 3M MgCl₂ buffer. For cynomolgus macaque CD8αβ heterodimer, the binding kinetics were assessed with the same experimental parameters, except the concentration ranges from 400 to 12.5 nM. Sensorgrams were generated, and background-subtracted with the blank running buffer. The binding kinetic parameters were analyzed and determined with a standard 1:1 monovalent binding (Langmuir) model using BIAcore Evaluation software (Cytiva).

[5] = target: T2, human CD8αα homodimer, recombinant …; test: as above
Protocol: as §3, §4

[6] = target: T3, cynomolgus macaque CD8αβ heterodimer, recombinant protein (cynomolgus macaque); test: as above
T3 construct: In BLI coupled directly to amine-reactive sensor tips; also called cynomolgus CD8αβ heterodimer
Protocol: as §3, §4

[7] = target: T4, cynomolgus macaque CD8αα homodimer, recombinant protein (cynomolgus macaque); test: as above
T4 construct: also called cynomolgus CD8αα homodimer
Protocol: as §3, §4

[8] = target: T2, human CD8αα homodimer, recombinant …; test: BLI steady state, whole hIgG1-LALAPA antibody on CD8α-His (Ni-NTA sensor), 30 °C
Protocol: as §2

T2 sequence (P01732 22-182 limits assumed): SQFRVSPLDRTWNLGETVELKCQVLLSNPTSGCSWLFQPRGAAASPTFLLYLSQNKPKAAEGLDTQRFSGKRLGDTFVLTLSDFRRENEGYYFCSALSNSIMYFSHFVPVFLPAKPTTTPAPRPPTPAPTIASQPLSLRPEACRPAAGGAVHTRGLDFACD
Sequence of human CD8αβ heterodimer, recombinant protein (P01732 22-182 limits assumed, chain 1 of 2): as the sequence (P01732 22-182 limits assumed) above
Sequence of human CD8αβ heterodimer, recombinant protein (P10966 22-170 limits assumed, chain 2 of 2): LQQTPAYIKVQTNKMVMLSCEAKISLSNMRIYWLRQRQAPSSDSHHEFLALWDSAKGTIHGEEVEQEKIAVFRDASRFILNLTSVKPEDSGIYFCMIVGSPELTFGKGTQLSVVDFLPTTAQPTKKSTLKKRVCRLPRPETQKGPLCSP
T1 sequence (P01732 22-235): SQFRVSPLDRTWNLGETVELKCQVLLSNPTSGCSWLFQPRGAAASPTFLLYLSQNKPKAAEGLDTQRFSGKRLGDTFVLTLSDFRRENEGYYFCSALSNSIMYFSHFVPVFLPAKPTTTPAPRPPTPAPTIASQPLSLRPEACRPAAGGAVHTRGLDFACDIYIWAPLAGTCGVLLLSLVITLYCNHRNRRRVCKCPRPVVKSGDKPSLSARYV

Binder | EC50 [1] | EC50 [2] | Kd [3] | Kd [4] | koff [4] | kon [4] | Kd [5] | koff [5] | kon [5] | Kd [6] | koff [6] | kon [6] | Kd [7] | koff [7] | kon [7] | Kd [8]
B1 | 0.274 µg/mL | 0.312 µg/mL | 1.71 nM | 8.99 nM | 0.00111 s⁻¹ | 124000 M⁻¹ s⁻¹ | 2.46 nM | 0.000289 s⁻¹ | 117000 M⁻¹ s⁻¹ | 31 nM | 0.00114 s⁻¹ | 36800 M⁻¹ s⁻¹ | 5.43 nM | 0.000271 s⁻¹ | 50000 M⁻¹ s⁻¹ | –
B2 | – | – | – | – | – | – | – | – | – | – | – | – | – | – | – | 0.58 nM
